Laboratory results published in PMC5948177 (Science (New York, N.Y.), 2018).

Key:
cryo-EM structure = biological target: the molecule itself; assay: cryo-EM structure
[1] = biological target: T1, a-subunit of the yeast ATP synthase Fo (yeast (strain W303-1A background), UniProt P00854 11-259); assay: cryo-EM structure
T1 sequence (looked up): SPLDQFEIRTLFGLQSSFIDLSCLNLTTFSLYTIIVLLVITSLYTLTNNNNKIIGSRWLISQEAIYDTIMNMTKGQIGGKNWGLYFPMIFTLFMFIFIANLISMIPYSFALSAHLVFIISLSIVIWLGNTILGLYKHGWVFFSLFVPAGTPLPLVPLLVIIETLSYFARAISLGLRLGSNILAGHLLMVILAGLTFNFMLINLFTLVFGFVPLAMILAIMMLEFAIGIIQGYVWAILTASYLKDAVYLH

binding result [1]: binds
B1: c-subunit of the yeast ATP synthase Fo (c10-ring) (natural protein, yeast (strain W303-1A background), UniProt P61829 1-76, looked up)
chain: MQLVLAAKYIGAGISTIGLLGAGIGIAIVFAALINGVSRNPSIKDTVFPMAILGFALSEATGLFCLMVSFLLLFGV
stoichiometry N (cryo-EM structure): 10
